# According to the supplement of paper PMC9170038:
# Test system: K4 kissing-loop RNA reporter
# Experiment: apparent KD of K4 kissing-loop reporter; higher = weaker reporter binding
# Details: Eterna round: R107; input ligand: FMN 200 uM
# Experimental: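 RNA-MaP round R107: designed RNA switches with theophylline, tryptophan, arginine or FMN aptamers are transcribed on-chip within common flanks. They are titrated with a labelled K4 kissing-loop RNA reporter in RNA-MaP buffer (100 mM Tris pH 7.5, 80 mM KCl, 4 mM MgCl2), without ligand or with the indicated ligand. Median apparent KD per design.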
# 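Further: bound reporter read as fluorescence of individual clusters on recovered sequencing chips by microscopy, with normalized cluster intensities fitted with a binding model.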
row,Sequence,apparent KD of K4 kissing-loop reporter
1,UGUGUUGUUUUGAUGUUUGUUGUAAAAUGGCAGGAUAUCGUAGAGGCGAGAAGGGCUUUUAUGCGUUAUGAGUGAUGUUUGUAGG [zvvczmullin],338 nM
2,UGACUGGACUGAAGGAGCGCUAAACUCCUAGUGAUGUUAGGAUAACGAGACAAAGUCUCGAGGCAGGUAGGUCGCAGUCUAGUCU,128 nM
3,UCCUGCAAUCGACCACGAAAGUGGAUGGAUACCAGAGUCGAAAGACUCCCUUGGCAGCCAGUGAUGUUGGAAGCAGGUAAAUAAA [#SwitchBubble 17 #K4Late],364 nM
4,UGUCAUUGGUCUGAUACCAGUUGAUAAACUGGAGUGAUGUUCCAAGAACGAGAAACUCGCAACCCUUGGCAGCAGACCGAUGACU [TheoBS 17 #SwitchBubble 13 #StaticStem],302 nM
5,AUGCGUGAUGCUCAAAGAGUAUCACCCGAUACCAGUAUGGAAACAUACCCUUGGCAGCGGGUAACUGCCCAGUGAUGUUGGACGC [Theophylline A K4 10],286 nM
6,AAAUAUUCGAGUGAUGUUCGAAUAAUAUCAGAGGAUAUGCAUAAAAGCAGAAGGCUGUAUUACUUUUUGUUACGAAAUUUUAUAA [JR_SSFMNA_Sub020],111 nM
7,GGACAAGCAUUAGGAUAUAUAGAGCGAAACGCAAUUGAGUGAUGUUCAAAAGCAUAGGGCGAGGAAAUAGAAGGAAUGCACGGGC [Default title],192 nM
8,UGAACUGUCUGCGAUACCAGCUAAGGAGUGAUGUUCCGGCUCGACGAAACGUCGAGCCAUAGCCCUUGGCAGCGCAGACAGUUCA [#28 K4 Theophylline B Same State],387 nM
9,UCGGAGGGAGCGGCCGCCACUGUAUUACCUCGACGAACGCCGGUUUUCAUGAAGUGAUGUUUCGCCAGGACCGGGCUAAUCUGAG [theeternabot_exclusion_KL_Trp_B_46],244 nM
10,AGGUGCUACGGAAGGAGCGCACCAGUGAUGUUGGUGUGUGACCGUGACAUGGCAGUCAAGGUGCAGGUAGGUCGCCGUGGCCUUU [Geeseris],137 nM
11,AAUUCAGUGAUGUUGGAAGGCAGGAGGGAUACCAGCGGAAAUAAACGCCCUUGGCAGCCCAAAUAUCCCAAAUAGAUAAUAAUUU [Same State - Theophylline A (Freestyle 1)],581 nM
12,UUGUUUGGUUGAGAGGUUGGGCGAGAUGAUACCAGUAUAGUAUAGUACCCUUGGCAGCAUAGGAGAGAUAUAGUGAUGUUGUAUG [SSTheophA.V],424 nM
13,AAAUAGAUCAGUCACCCAGUGAUGUUGGAAGGAGCGUGCGAAAGCACAGGUAGGUCGCCGAAAUAAAAUUGGCUGAUCAAAAUAA,151 nM
14,CCGGGCGGCCGAAGGAGCGGGCGGGCCCGAGUGAUGUUCGGGUGGACCGUGAGGUCCGGUGCCCAGGUAGGUCGCGGUUCCGCCC [#2 Same State - Arginine B Attempt #7 (HarryS)],156 nM
15,UGACAUUGCUCAGAUACCAGACCUGAGGAUCACCCGGGUGCCAAAACGUACUAAAUAAAGGUCCCUUGGCAGCUGAGCAAUGUCU [TheoBX 13],56.9 nM
16,ACAUUAGCGAGUGAUGUUCGCUAAGACGAAGGAGCGCUCGCGAGAGCAGGUAGGUCGCGUCUAGUGUCACUGUACUAAAUAGUGA [Arg A SS t12],159 nM
17,AUUAUAAAGACGGCCGCCACUGAGAGUAGUGAUGUUACUCUUUUCCUUUAGAUAUUAUAUUUUAUCAGGACCGGGUUUUUUGAUU [JR_Nu_ExcTryptoB_Sub025],97.3 nM
18,AGGUUUUGAUUAGGAUAUGCACUGACGACGAGAAUAUAGUGAUGUUAUAUAAUACGAAUUAGUAGAGUAGAAGGGAUUGAGGUUU [SSFMNB.X],422 nM
19,GGAUCCACCAGUGAUGUUGGAGUAAUCUCCAAGGAUAUGACGAAAGUCAGAAGGUGGUAAAUAGACGUCAAAGACGUCGGAUCCA [FmnA 22 #SwitchBubble #K4Early],499 nM
20,AUCUAUGAGCGAGGAUAUGCAUAACGCGAGUGAUGUUCGCGAUGUGGGCGUAAUUGAUAAAAUGAAGCAGAAGGCGCACUCAUGA [Exclusion - FMW B / B],165 nM
21,UGUGUUUACCUGACUCAGUGAUGUUGAGAAGGAGCGUGCUAAGGCACAGGUAGGUCGCUCAACCUAAAUUCAGGUGAGCACUAAA,305 nM
22,UUACUGCCCAGUGAUGUUGGGUAUCGGCGGCGAGGACCGGUACGGCCGCCACUCGGCGCACAGGCGGAGUGAUGUUUCGCUUAAA [Same State Tryptophan A GF 12],621 nM
23,AUGUACAUUCUCAGUGAUGUUGGGUUGUAACGAGGACCGGUACGGCCGCCACUCGGGAUGUGGUAUAUAGAUGUAUGUGUAGCAU [skye_SS_TA],612 nM
24,CCUAUCUCAUACGAUACCAGUCUACGAUAUUUUAUCGUUGCCAUCACCGAGUGAUGUUCGGACCCUUGGCAGCGUAUGGGAUAGG [Ex Theophylline B K4 5],340 nM
25,UGCUUUAUCAGAAGGAGCGGGUUGUUCAUAAUAAUAAUCAGUGAUGUUGAUAUAUGAUGAUUCCAGGUAGGUCGCUGAUAUAGCU [KL-XARG-B2],283 nM
26,UAAUAAAUUCCAGCUAUAUCACUCUUCGAAGGAGCGGACGAAAGUCCAGGUAGGUCGCGAAGAGUGAUGUUCUUUGCGGCGCUGG [Omei KL Arginine A Exc A v5],94.1 nM
27,GCUAGGAUGGCAGGAUAUAGUUCGUGAGUGAUGUUCAAAGAACUAAGAGGGACACCUCAUUCUAAACUAGAAGGGCCAUCCUAGC,246 nM
